The results in this text go back to patent US20220195015A1 (published 2022).

B1: C709 (antibody, V domains shown)
VH: QVQLVQSGAEVRKPGASVKVSCMASGYTFNTYDINWVRQGTGQGLEWMGWMNPNSGNTGHAQKFQGRVAMTVNTSMNTAYMELSSLRSEDTAVYYCARGADMLNVAVGADFDYWGQGTLVTVSS
VL: QSALTQPPSASGSPGQSVTISCTGTSSDVGGYNFVSWFQQHPGKAPKLMIYEVSKRPSGVPDRFSGSKSANTASLTVSGLQAEDEADYFCSSYAGSNNWVFGGGTKLTVL
B2: C054 (antibody, V domains shown)
VH: EVQLVESGGGLIQPGGSLRLSCAASGFTVSNNYMSWVRQAPGKGLEWVSVIYSGGSTYDADSVKGRFTISRDNSKNTLYLQMNSLSAEDTAVYYCAREGDVEGYYDFWSGYSRDRYYFDYWGQGTLVTVSS
VL: QSALTQPASVSGSPGQSITISCTGTSSDVGGYNYVSWYQQHPGKAPKLMIYDVSNRPSGVSNRFSGSKSGNTASLTISGLQAEDEADYYCSSYTSSSARVFGTGTKVTVL
B3: C051 (antibody, V domains shown)
VH: EVQLVESGGGLIQAGGSLRLSCAASGFGVRNNYMSWVRQAPGKGLEWVSVIYSGGTTYYADSVKGRFTISRDNSKNTVFLQMNSLRAEDTAVYYCAREGDVEGFSDLWSGYSRDRYYFDYWGQGTLVTVSS
VL: QSALTQPASVSGSPGQSITFSCTGTSSDVGGYNYVSWYQQYPGKAPKLLIYDVTNRPSGVSDRFSGSKSGNTASLTISGLQAEDEADYYCSSFTSSNTRVFGTGTKVTVL
B4: C050 (antibody, V domains shown)
VH: EVQLVESGGGLFQPGGSLRLSCAASGFSVRNNYVSWVRQAPGKGLEWVSVIYSGGTTYYADSVKGRFTISRDISENTLYLQMNSLRAEDTAVYYCAREGDVEGLHDFWSGYSRDRYYFDYWGQGTLVTVSS
VL: QSALTQPASVSGSPGQSIIISCTGTSGDIGGYNYVSWYQQHPGKAPKLMIYDVSFRPSGVSNRFSGSKSDNTASLTISGLQAEDEADYYCSSFTGNNTRVFGTGTKVTVL
B5: C053 (antibody, V domains shown)
VH: EVQLVESGGGLIQPGGSLRLSCAASGFIVSNNYMSWVRQAPGKGLDWVSVIYSGGTTYYADSVKGRFTISRDNSKNTLYLQMNSLRAEDTAVYYCAREGDVEGYHDSWSGYSRDRYYFDYWGQGTLVTVSS
VL: QSALTQPASVSGSPGQSITISCTGSSSDVGGYNFVSWYQQHPGRAPKLMIYDVSNRPSGVSNRFSGSKSGNTASLTISGLQVEDEADYYCSSYTNNNTRVFGTGTKVTVL
B6: C052 (antibody, V domains shown)
VH: EVQLVESGGGLIRPGGSLRLSCAASGFSVSNNYMSWVRQAPGKGLEWVSVIYSGGTTYYADSVKGRFNISRDNSKNTVYLQMNSLRAEDTAVYYCAREGDVEGYYDFWSGYSRDRYYFDYWGQGALVTVSS
VL: QSALTQPASVSGSPGQSITISCTGTSSDVGGYNYVSWYQQHPGKAPKLMIYDVSNRPSGVSNRFSGSKSGNTASLTISGLQAEDEADYYCNSYTSNNTRVFGTGTKVTVL
B7: C144 (antibody, V domains shown)
VH: EVQLVESGGGLIQPGGSLRLSCAASGFTVSNNYMSWVRQAPGKGLEWVSVIYSGGSTYYADSVKGRFTISRDKSKNTLYLQMNRLRAEDTAVYYCAREGEVEGYNDFWSGYSRDRYYFDYWGQGTLVTVSS
VL: QSALTQPASVSGSPGQSITISCTGTSSDVGGYNYVSWYQQHPGKAPKLMIYDVSNRPSGVSNRFSGSKSGNTASLTISGLQAEDEADYYCSSYTSSSTRVFGTGTKVTVL
B8: C703 (antibody, V domains shown)
VH: EVQLLESGGGLVQPGGSLRLSCAGSGFTFSHYALSWVRQAPGKGLEWVSCISGTGGNSHYADSVKGRFTSSRDNSKNILYLQMNSLRAEDTAVYFCAKGGDFWSGYLIPFDSWGQGTLVTVSS
VL: SYELTQSPSVSVAPGKTARITCGGDSIGSKNVHWYQQKPGQAPVLVMYYDNDRPSGIPERFSGYNSGNTATLSISRVEAGDEADYYCLVWDGSGDPWVFGGGTKLTVL
B9: C710 (antibody, V domains shown)
VH: QVQLQESGPGLVKPSETLSLTCIVSGGSINSTTYYWDWIRQSPGKGLEWIGSIFYTGITYYSPSLKTRVTISVDTSKNQFSLRLNSMTAADTAVYYCARRLRQLWFGPWFDPWGQGTLVTVSS
VL: QSALTQPPSASGSPGQSVTISCTGTRSDVGDYNYVSWYQQHPDKAPKLIIFEVTKRPSGVPDRFSGSKSGNTASLTVSGLQAEDEADYYCSSYAGSSNVMFGGGTKLTVL
B10: C096 (antibody, V domains shown)
VH: EVQLVESGGGLVKPGGSLRLSCVASGFTFRNAWMNWVRQAPGKGLEWVGRIKANSDGGTIDYAEPVQGRFTISREDSRNSLYLQMNSLKTEDTAVYYCTTGPQYDDFGHSYIVDSWGPGTLVTVSS
VL: DIVMTQSPLSLPVTLGEPASISCRSSQSLLHSNGFHFLEWYLQKPGQSPQLLIYVGSNRASGVPDRFSGSGSGTDFTLKISRVEAEDVGVYYCMQTLQTPLTFGGGTKVEIK
B11: C046 (antibody, V domains shown)
VH: EVQLVESGGGLAQPGRSLRLSCAASGFTFDDYAMHWVRQAPGKGLEWVSGINWNSGSLGYADSVKGRFTISRGIAKNSLYLQMNSLRPEDTAFYYCAKAGVRGIAAAGPDLNFDYWGQGTLVTVSS
VL: EIVLTQSPATLSLSPGERATLSCRASQSVSSYLAWYQQKPGQAPRLLIYDASNRATGIPARFIGSGSGTDFTLTISSLEPEDFAVYYCQQRITFGQGTRLEIK
B12: C704 (antibody, V domains shown)
VH: VQLVESGGGVVQPGRSLRLSCAASGFTFSRYGMHWVRQAPGKGLEWVAVSSYDGSNEYYANSVKGRFTISRDNSKNTLYLQMNSLRAEDTAVYYCAKTGASYCGGDCPFHFDYWGQGTLVTVSS
VL: IRMTQSPSSLSASVGDRVTITCQASQDINNYLNWYQQKPGKAPKLLIYDASDLETGVPSRFSGGGSGTDFTFTISSLQPEDIATYYCQHYNNLPITFGQGTRLEIK
B13: C708 (antibody, V domains shown)
VH: EVQLVESGGGLVQPGGSLRLSCAASGFSFSTYWMSWVRQAPGKGLEWVADIKQDGSEKYFVDSVKGRFTISRDNAKNSLYLHLNSLRAEDTAVYYCAREMAGSGNYYWFGYGMDVWGQGTTVTVSS
VL: IRMTQSPSSVSASVGDRVTITCRASQGISSWLAWYQQKPGKAPKLLIYAASSLQSGVPSRFSGSESGTDFTLTISSLQPEDFATYYCQQANSFPLTFGGGTKVEIK
B14: C707 (antibody, V domains shown)
VH: EVQLVESGGGLVKPGGSLRLSCAASGFTFSSYSMNWVRQAPGKGLAWVSSISSSNNIIYYADSVKGRFTISRDDAKDSLYLHMKSLRADDTAVYFCARVPSWAPYQLLPGPFDYWGQGILVTVSS
VL: IRMTQSPSSLSASVGDRVTITCQASQAIASYLSWYQHKPGRAPKLLIYDASNLEIGVPSRFSGSGSGTDFTFTISSLQSEDNATYYCQQYESLPGTFGGGTKVEIK
B15: C706 (antibody, V domains shown)
VH: EVQLVESGGGLVKPGGSLRLSCAASGFTFSNVWMSWVRQAPGKGLEWVGRIKSKIDGGTTEYAAPVKGRFIISRDDSKNTLSLQMNSLKTEDTAVYYCTTDHGREPPVHWGQGTLVTVSS
VL: EIVLTQSPGTLSLSPGERASLSCRARQSVYSNYLAWYQHKSGQAPRLLFYGASSRATDIPDRFSASGSGTDFTLTISRLEPEDFAVYYCLQYGPSPTFGPGTRLEIK

This experiment addresses SARS-CoV-2 spike receptor binding domain (RBD), wild type (SARS-CoV-2, UniProt P0DTC2 319-539). The experiment is described as follows: ELISA on coated RBD protein. (An ELISA detects its analyte on a solid surface through an enzyme-linked reagent.)
Broadly, the EC50 is the midpoint of the concentration-response curve. Higher therefore signals a less potent agent. B1 had an EC50 of 7.56 ng/mL.

Take B2: the half-maximal effective concentration (EC50) came to 1.58 ng/mL.

Molecule B3 showed an EC50 of 1.65 ng/mL.

On to B4, for which the midpoint of the response, the EC50, lay at 1.93 ng/mL.

B5 yielded an EC50 of 1.53 ng/mL.

B6: the half-maximal effective concentration (EC50) worked out at 1.23 ng/mL.

On to B7, for which the EC50 was found to be 1.83 ng/mL.

As to B8, the 50% effective concentration (EC50) was found to be 10.9 ng/mL.

In turn, B9 returned a half-maximal effective concentration (EC50) of 17.8 ng/mL. Compared with the last molecule, the EC50 is about 1.6-fold higher.

B10 registered a concentration giving a half-maximal response (EC50) of 5.18 ng/mL.

For the molecule B11, the EC50 came to 4.02 ng/mL.

B12 gave an EC50 of 13.4 ng/mL. This EC50 lies about 3.3-fold higher than the previous one.

In turn, B13 gave an EC50 of 130 ng/mL.

Take B14: the EC50 was found to be 26 ng/mL.

On to B15, for which a half-maximal response (EC50) required 73.5 ng/mL.
